The text below walks through data of the supplement of paper PMC11246515.

The data set is described as follows: total protein half-life in vivo (active degradation + dilution); higher = more stable protein.
Setting [1] is: E. coli NCM3722 delta-clpP delta-lon delta-hslV, growth: N-lim chemostat, doubling time 6 h.
The mark [2] stands for this setting: E. coli NCM3722 delta-clpP, growth: N-lim chemostat, doubling time 6 h.
[3] abbreviates: E. coli NCM3722 delta-hslV, growth: N-lim chemostat, doubling time 6 h.
The mark [4] stands for this setting: E. coli NCM3722 delta-lon, growth: N-lim chemostat, doubling time 6 h.
Setting [5] is: E. coli NCM3722 delta-smpB, growth: N-lim chemostat, doubling time 6 h.
Where [6] appears, read: wild type E. coli NCM3722, growth: C-lim chemostat, doubling time 3 h.
Setting [7] is: wild type E. coli NCM3722, growth: C-lim chemostat, doubling time 12 h.
[8] abbreviates: wild type E. coli NCM3722, growth: N-lim chemostat, doubling time 6 h.
Setting [9] is: wild type E. coli NCM3722, growth: N-lim chemostat, doubling time 12 h.
[10] abbreviates: wild type E. coli NCM3722, growth: P-lim chemostat, doubling time 6 h.
The mark [11] stands for this setting: wild type E. coli NCM3722, growth: P-lim chemostat, doubling time 12 h.
Where [12] appears, read: wild type E. coli NCM3722, growth: C-lim chemostat, doubling time 6 h.

± gives the standard deviation of the averaged measurements.

As for “MENAKMNSLIAQYPLVKDLVALKETTWFNPGTTSLAEGLPYVGLTEQDVQDAHARLSRFAPYLAKAFPETAATGGIIESELVAIPAMQKRLEKEYQQPISGQLLLKKDSHLPISGSIKARGGIYEVLAHAEKLALEAGLLTLDDDYSKLLSPEFKQFFSQYSIAVGSTGNLGLSIGIMSARIGFKVTVHMSADARAWKKAKLRSHGVTVVEYEQDYGVAVEEGRKAAQSDPNCFFIDDENSRTLFLGYSVAGQRLKAQFAQQGRIVDADNPLFVYLPCGVGGGPGGVAFGLKLAFGDHVHCFFAEPTHSPCMLLGVHTGLHDQISVQDIGIDNLTAADGLAVGRASGFVGRAMERLLDGFYTLSDQTMYDMLGWLAQEEGIRLEPSALAGMAGPQRVCASVSYQQMHGFSAEQLRNTTHLVWATGGGMVPEEEMNQYLAKGR”, the “total protein half-life in vivo” value runs as follows: under setting [1], 5.22 ± 0.27 h; under setting [2], 5.27 ± 1.2 h; under setting [3], 4.89 ± 0.1 h; under setting [4], 5.43 ± 0.24 h; under setting [5], 4.517 ± 0.042 h; under setting [6], 3.01 ± 0.033 h. Also, the “total protein half-life in vivo” value was found to be 10 ± 1.9 h under setting [7]; 4.91 ± 0.21 h under setting [8]; 7.88 ± 0.44 h under setting [9]; 5.98 ± 0.35 h under setting [10]; 11.2 ± 2.2 h under setting [11].

In the case of “MAGESFILMGVSGSGKTLIGSKVAALLSAKFIDGDDLHPAKNIDKMSQGIPLSDEDRLPWLERLNDASYSLYKKNETGFIVCSSLKKQYRDILRKGSPHVHFLWLDGDYETILARMQRRAGHFMPVALLKSQFEALERPQADEQDIVRIDINHDIANVTEQCRQAVLAIRQNRICAKEGSASDQRCE”, the “total protein half-life in vivo” value is 4.25 h under setting [1]; 2.82 ± 0.78 h under setting [6]; 2.8 ± 0.43 h under setting [12]; 3.67 h under setting [7]; 1.6 h under setting [8].

In the case of “MNKYWLSGIIFLAYGLASPAFSSETATLAINGRISPPTCSMAMVNGQPQQHCGQLTYNVDTRHLFSSPVKGVTTEVVVAGSDSKRRIVLNRYD”, the “total protein half-life in vivo” value reads like this: under setting [1], 1.53 h; under setting [5], 0.626 ± 0.25 h; under setting [12], 0.465 h.

Turning to “MSRRAGTPTAKKVTQLVNVEEHVEGFRQVREAHRRELIDDYVELISDLIREVGEARQVDMAARLGVSQPTVAKMLKRLATMGLIEMIPWRGVFLTAEGEKLAQESRERHQIVENFLLVLGVSPEIARRDAEGMEHHVSEETLDAFRLFTQKHGAK [P0A9F1]”, the “total protein half-life in vivo” value is 5.72 ± 0.35 h under setting [1]; 5.64 ± 0.32 h under setting [2]; 4.73 ± 0.12 h under setting [3]; 6 ± 0.3 h under setting [4]; 5.06 ± 0.61 h under setting [5]; 3 ± 0.046 h under setting [6]. Also, the “total protein half-life in vivo” value was found to be 5.03 ± 0.24 h under setting [12]; 12 ± 5.5 h under setting [7]; 4.66 ± 0.23 h under setting [8]; 9.78 ± 2.5 h under setting [9]; 3.96 ± 0.21 h under setting [10]; 8.06 ± 0.26 h under setting [11].

In the case of “MQQVFFQETEFLNSVIDYDHKVETENLCLDIAYGTDKNFLFGCGISIASILKYNEGSRLCFHIFTDYFGDDDRKYFDALALQYKTRIKIYLINGDRLRSLPSTKNWTHAIYFRFVIADYFINKAPKVLYLDADIICQGTIEPLINFSFPDDKVAMVVTEGQADWWEKRAHSLGVAGIAKGYFNSGFLLINTAQWAAQQVSARAIAMLNEPEIIKKITHPDQDVLNMLLADKLIFADIKYNTQFSLNYQLKESFINPVTNDTIFIHYIGPTKPWHDWAWDYPVSQAFMEAKNASPWKNTALLKPNNSNQLRYSAKHMLKKHRYLKGFSNYLFYFIEKIKH”, the “total protein half-life in vivo” value is, setting by setting: under setting [1], 6.72 ± 0.28 h; under setting [3], 5.66 ± 0.42 h; under setting [4], 5.78 ± 0.3 h; under setting [5], 5.82 ± 0.17 h; under setting [6], 2.95 ± 0.088 h; under setting [12], 5.41 ± 0.61 h. Further, the “total protein half-life in vivo” value by setting is: under setting [7], 10.4 ± 1.1 h; under setting [8], 5.16 ± 1.2 h; under setting [9], 11.7 ± 0.74 h; under setting [10], 5.85 ± 0.45 h; under setting [11], 11.3 ± 1 h.

For “MNLSTKQKQHLKGLAHPLKPVVLLGSNGLTEGVLAEIEQALEHHELIKVKIATEDRETKTLIVEAIVRETGACNVQVIGKTLVLYRPTKERKISLPR [P0AGK4]”, the “total protein half-life in vivo” value under setting [1] stood at 7 ± 0.84 h; the “total protein half-life in vivo” value under setting [2] stood at 5.91 ± 0.59 h; the “total protein half-life in vivo” value under setting [3] is 6.12 ± 0.24 h; the “total protein half-life in vivo” value under setting [4] was found to be 6.47 ± 0.075 h; the “total protein half-life in vivo” value under setting [5] stood at 5.7 ± 0.41 h; the “total protein half-life in vivo” value under setting [6] was determined as 3.11 ± 0.53 h. Also, the “total protein half-life in vivo” value reads like this: under setting [12], 5.73 ± 0.12 h; under setting [7], 9.46 ± 1.2 h; under setting [8], 4.83 ± 0.25 h; under setting [9], 10.8 ± 2.1 h; under setting [10], 4.88 ± 1.1 h; under setting [11], 12.6 ± 3 h.

Take “MMNSTNKLSVIIPLYNAGDDFRTCMESLITQTWTALEIIIINDGSTDNSVEIAKYYAENYPHVRLLHQANAGASVARNRGIEVATGKYVAFVDADDEVYPTMYETLMTMALEDDLDVAQCNADWCFRETGETWQSIPTDRLRSTGVLTGPDWLRMGLSSRRWTHVVWMGVYRRDVIVKNNIKFIAGLHHQDIVWTTEFMFNALRARYTEQSLYKYYLHNTSVSRLHRQGNKNLNYQRHYIKITRLLEKLNRNYADKIMIYPEFHQQITYEALRVCHAVRKEPDILTRQRMIAEIFTSGMYKRLITNVRSVKVGYQALLWSFRLWQWRDKTRSHHRITRSAFNLR”: the “total protein half-life in vivo” value came to 5.55 ± 0.4 h under setting [1]; 0.858 h under setting [2]; 0.809 ± 0.17 h under setting [5]; 0.32 ± 0.2 h under setting [10]; 0.789 ± 0.74 h under setting [11].
